Measurements from the supplement of paper PMC10724198.
± gives the standard deviation of the averaged measurements.

System: Saccharomyces cerevisiae
Test: protein stability index of tFT-peptide fusion (C-terminal peptide) (PSI (0-1 scale)); higher = more stable (slower turnover)
Conditions: genetic background: wild type; temperature: 30 C
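Further: PSI is a weighted mean of sequencing reads over stability bins, variants kept only with over 10 reads, mCherry proximal and sfGFP distal, peptide attached via GGGS linker.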

Sequence | protein stability index
RFKCVKPPLPRR | 0.715 ± 0.03
RFLDVSRYAGGV | 0.705 ± 0.025
RFLISYFYKVIR | 0.56 ± 0.034
RFQWAFMSWSEP | 0.823 ± 0.064
RFRCGLPMQERT | 0.689 ± 0.064
RFRGYWSWGMTL | 0.777 ± 0.13
RFVAFDFLGISL | 0.736 ± 0.2
RFVHCRRKVAKR | 0.667 ± 0.047
RFWDMGGYAGGL | 0.733 ± 0.079
RGALQQLREHTS | 0.687 ± 0.055
RGASLFPTPLAF | 0.742 ± 0.043
RGCCSVAFRCVV | 0.712 ± 0.066
RGEHKDYFYVMT | 0.651 ± 0.0076
RGEMGLAPTGGD | 0.651 ± 0.044
RGFCGGLWRPGV | 0.769 ± 0.013
RGGDIEVPSDQN | 0.705 ± 0.019
RGGGCNGVSVEG | 0.6899 ± 0.0027
RGGGGGGSRTGA | 0.706 ± 0.026
RGGGGGVECRVG | 0.655 ± 0.075
RGGGGPGWGSRG | 0.684 ± 0.025
RGGGRRAWVWGG | 0.675 ± 0.036
RGGGVWGKEDSQ | 0.717 ± 0.052
RGGLDQVHKGFR | 0.711 ± 0.086

Sequence | protein stability index
RGGSGGRKCLGV | 0.687 ± 0.0094
RGGSGGSCMRYV | 0.678 ± 0.066
RGGTGGWKGVWV | 0.71 ± 0.022
RGISAAAAPGEG | 0.706 ± 0.024
RGKEREGGRQER | 0.746 ± 0.045
RGLIVGMGAGMV | 0.671 ± 0.015
RGLNIPRLSCRY | 0.748 ± 0.008
RGPKDNGGSETS | 0.713 ± 0.078
RGPPCPFPVPLP | 0.74 ± 0.033
RGPRWETVSSCM | 0.682 ± 0.027
RGRASVIWGGPG | 0.659 ± 0.086
RGRDTETFSDNS | 0.6901 ± 0.0054
RGRLRGPEPKMT | 0.726 ± 0.078
RGRRGAGRKGGP | 0.751 ± 0.15
RGRWLIVHCPTQ | 0.605 ± 0.034
RGSGSGTRCRRS | 0.682 ± 0.11
RGTGGGSESGVK | 0.661 ± 0.063
RGTWAVGGGRGG | 0.671 ± 0.065
RGVALWALYGAG | 0.76502 ± 0.00052
RGVSRQVRTVDP | 0.679 ± 0.03
RGVSVRLSLAYR | 0.6216 ± 0.0048
RGWARGRQGCGG | 0.726 ± 0.011
RGWWVLWGGGWG | 0.551 ± 0.025

Sequence | protein stability index
RHARAARDSPRR | 0.705 ± 0.081
RHGFTNINGIKH | 0.714 ± 0.012
RHGVQMAGLKRR | 0.679 ± 0.019
RHLMNYEKRNAN | 0.723 ± 0.053
RHNKVSPNARYN | 0.661 ± 0.027
RHPSVLPLSILL | 0.653 ± 0.054
RHSPGPLLTPAP | 0.712 ± 0.045
RHTPPTTPLSLL | 0.701 ± 0.096
RICIGSLHGASI | 0.576 ± 0.019
RICPEVSSVLIR | 0.682 ± 0.035
RIFFTCDSFLCV | 0.611 ± 0.04
RIGICSTNTSLQ | 0.722 ± 0.067
RIGYGEGWKKGG | 0.695 ± 0.067
RIINRIDNKIEK | 0.672 ± 0.0039
RIKKTRVVRQKM | 0.547 ± 0.04
RILLSHGNSRSI | 0.699 ± 0.013
RINKRKKKKDKG | 0.6136 ± 0.00074
RIQIKIKRTKNK | 0.638 ± 0.11
RIRRERRIGLKV | 0.559 ± 0.0092
RISGDVNCLSPR | 0.718 ± 0.066
RISGVEKPLLRV | 0.663 ± 0.015
RITRVRNKEQSK | 0.692 ± 0.016
RIVMSSDHTFQG | 0.635 ± 0.0072

Sequence | protein stability index
RKAKHWKNKIQK | 0.737 ± 0.048
RKCPRVCVFQSS | 0.557 ± 0.017
RKDEKEMVRKTK | 0.682 ± 0.061
RKGRETGTKERE | 0.671 ± 0.036
RKHIANPTDQND | 0.673 ± 0.019
RKHLIPRPTSNP | 0.71 ± 0.011
RKICINIEKKGE | 0.682 ± 0.018
RKIRIDKQRKVK | 0.716 ± 0.033
RKKKKKLKKKTE | 0.66 ± 0.082
RKKRNKTQTSKT | 0.6936 ± 0.00054
RKKRYRRRKIKK | 0.773 ± 0.025
RKLFLKNELGSK | 0.7 ± 0.14
RKLKNKTKREII | 0.653 ± 0.0068
RKMRNGRKRKKK | 0.62 ± 0.025
RKNNTVIKQIKR | 0.656 ± 0.054
RKRKIKQYITTT | 0.725 ± 0.043
RKVGRVGGGRLE | 0.637 ± 0.018
RKVHNVETQITA | 0.648 ± 0.018
RKVRRTRNSEGE | 0.726 ± 0.011
RLAAPPRYPPLP | 0.731 ± 0.12
RLATRPILDLPP | 0.519 ± 0.026
RLAVLKGWTTFV | 0.567 ± 0.039
RLAYSSGKAFRV | 0.702 ± 0.012

Sequence | protein stability index
RLCPGAALAFRG | 0.718 ± 0.12
RLCRQPPSLLPP | 0.6958 ± 0.0053
RLEFSFHPFFLS | 0.658 ± 0.02
RLFAPSHSSSLP | 0.733 ± 0.055
RLFLGSIGTLTS | 0.673 ± 0.046
RLFLSFVDRRSL | 0.629 ± 0.06
RLFSPFTLPPFF | 0.739 ± 0.063
RLFSYLSTLSFI | 0.727 ± 0.053
RLGGAACLRSEC | 0.627 ± 0.04
RLGLVITKLGVY | 0.541 ± 0.0081
RLGNVYSTSFQC | 0.618 ± 0.012
RLGRGRRGMRWL | 0.659 ± 0.025
RLHFSSPLLHPP | 0.601 ± 0.041
RLHPSFPPPPPQ | 0.704 ± 0.029
RLIGLLRKTSKK | 0.719 ± 0.089
RLLSGLAHRATR | 0.672 ± 0.032
RLNKPRAPEKKA | 0.717 ± 0.11
RLNQSKSTKYSE | 0.651 ± 0.012
RLPPPLALDFRP | 0.6308 ± 0.0063
RLPRSPLHPSVP | 0.738 ± 0.016
RLPVIPRLIPSS | 0.635 ± 0.028
RLPVPRSLWSSN | 0.709 ± 0.013
RLRAFSRSVSSP | 0.734 ± 0.11

Sequence | protein stability index
RLRCRRPKPRRC | 0.682 ± 0.035
RLRRPSSGPFMF | 0.685 ± 0.037
RLSTPPAPQRPS | 0.666 ± 0.013
RLTPLSSSRLPP | 0.6556 ± 0.0043
RLVGCWGRVKFE | 0.6927 ± 0.003
RLVGPFSSLRLF | 0.649 ± 0.0072
RLYGCNYAQSRR | 0.712 ± 0.047
RMGWTRCRGGYG | 0.5865 ± 0.0044
RMTRIKKKINKS | 0.719 ± 0.034
RNAGIQVTGQAF | 0.704 ± 0.0079
RNKKKAKKEENR | 0.664 ± 0.048
RNKNYIDEEKER | 0.661 ± 0.037
RNLFRRAPNQGL | 0.723 ± 0.043
RNLPAHQARPDE | 0.6751 ± 0.003
RNNLSLALPREW | 0.725 ± 0.018
RNRYCNLRVGFD | 0.679 ± 0.011
RNTRVSLPPRGQ | 0.63 ± 0.041
RNVKETSNRREL | 0.627 ± 0.11
RPDACTRFGLRV | 0.678 ± 0.013
RPGLWGNEVGGN | 0.735 ± 0.013
RPGNGLTLPTAS | 0.622 ± 0.072
RPKGREKGEGRG | 0.733 ± 0.077
RPLCRSFPPASL | 0.788 ± 0.058

Sequence | protein stability index
RPLLHPRTGRSH | 0.677 ± 0.014
RPLLPPVLPPPL | 0.684 ± 0.019
RPLLPYHPTRFD | 0.721 ± 0.048
RPLSPPRPPPPS | 0.678 ± 0.014
RPPGPPPPAPFP | 0.711 ± 0.015
RPPHQAPPLPPS | 0.704 ± 0.062
RPPHRRRDKKVS | 0.701 ± 0.031
RPPPPPHRTGDC | 0.607 ± 0.02
RPPPPPPPRFPP | 0.706 ± 0.041
RPPPRPASPGSP | 0.634 ± 0.039
RPQHSPSVLVSY | 0.5884 ± 0.005
RPRSPRSLPPPP | 0.541 ± 0.043
RPRVAVPHTSLP | 0.714 ± 0.069
RPSPSLPSPSPP | 0.843 ± 0.081
RPTRPCSTPTAP | 0.78 ± 0.012
RPYLARQTTAPS | 0.6575 ± 0.0033
RQAIGRDTPRDP | 0.649 ± 0.0073
RQGHKRVKISGM | 0.599 ± 0.091
RQKTKRKDQKIK | 0.709 ± 0.023
RQSSPPPRIAPT | 0.6783 ± 0.0057
RRATCYGLGPTM | 0.681 ± 0.013
RRERKARREAPR | 0.682 ± 0.042
